According to patent publication US20250019439A1 (Adimab, published 2025):

What was measured:
[1] = target: T1, ADI-26909; experiment: SPR Carterra avidity, yeast anti-ID, *koff limit
T1 construct: anti-CD3 antibody made in CHO cells, captured by anti-human Fc
Outline: (§1)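 Goat anti-human Fc was amine-coupled to an HC30M sensor chip, then anti-CD3 antibodies at 100 nM were flowed over discrete spots for 5 min. Anti-idiotype antibodies were run in non-regenerative kinetic cycles at 25° C in HBSTE, with 300s dissociation. Blank-subtracted sensorgrams were fitted 1:1.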

[2] = target: T2, ADI-26924; experiment: SPR Carterra avidity, yeast anti-ID, *koff limit
T2 construct: anti-CD3 antibody made in CHO cells, captured by anti-human Fc
Outline: as §1

[3] = target: T3, ADI-67445; experiment: SPR Carterra avidity, yeast anti-ID, *koff limit
T3 construct: anti-CD3 antibody made in CHO cells, captured by anti-human Fc
Outline: as §1

[4] = target: T4, ADI-76359; experiment: SPR Carterra avidity, yeast anti-ID, *koff limit
T4 construct: anti-CD3 antibody made in CHO cells, captured by anti-human Fc
Outline: as §1

[5] = target: T5, ADI-76361; experiment: SPR Carterra avidity, yeast anti-ID, *koff limit
T5 construct: anti-CD3 antibody made in CHO cells, captured by anti-human Fc
Outline: as §1

[6] = target: T6, ADI-76362; experiment: SPR Carterra avidity, yeast anti-ID, *koff limit
T6 construct: anti-CD3 antibody made in CHO cells, captured by anti-human Fc
Outline: as §1

[7] = target: T7, ADI-26943; experiment: SPR Carterra avidity, yeast anti-ID, *koff limit
T7 construct: anti-CD3 antibody made in CHO cells, captured by anti-human Fc
Outline: as §1

[8] = target: T8, ADI-67447; experiment: SPR Carterra avidity, yeast anti-ID, *koff limit
T8 construct: anti-CD3 antibody made in CHO cells, captured by anti-human Fc
Outline: as §1

[9] = target: T9, ADI-26920 IgG; experiment: SPR Carterra avidity, yeast anti-ID, *koff limit
T9 construct: anti-CD3 IgG
Outline: as §1

[10] = target: T10, ADI-26921 IgG; experiment: SPR Carterra avidity, yeast anti-ID, *koff limit
T10 construct: anti-CD3 IgG
Outline: as §1

[11] = target: T11, ADI-22523 Fab; experiment: BLI; tip anti-ID IgG, solution ADI-22523 Fab
T11 construct: anti-CD3 Fab by papain digestion of the IgG
Outline: (§2)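 Sensors carrying captured anti-ID IgG were equilibrated 30 min in assay buffer before a 60 s baseline. Equilibrium KD was taken as koff/kon from a 1:1 model.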

[12] = target: T12, ADI-22523 IgG; experiment: BLI; tip anti-ID IgG, solution ADI-22523 IgG
T12 construct: anti-CD3 IgG
Outline: as §2

[13] = target: T13, ADI-70327; experiment: SPR Carterra avidity, yeast anti-ID
T13 construct: anti-CD3 antibody made in CHO cells, captured by anti-human Fc
Outline: as §1

[14] = target: T14, ADI-48587; experiment: SPR Carterra avidity, yeast anti-ID
T14 construct: pH-dependent anti-CD3 antibody made in CHO cells
Outline: as §1

[15] = target: T15, CTL-62223; experiment: SPR Carterra avidity, yeast anti-ID
T15 construct: also called mosunetuzumab
Outline: as §1

[16] = target: T16, ADI-76358; experiment: SPR Carterra avidity, yeast anti-ID
T16 construct: anti-CD3 antibody made in CHO cells, captured by anti-human Fc
Outline: as §1

[17] = target: T17, ADI-26906 IgG; experiment: SPR Carterra avidity, yeast anti-ID
T17 construct: anti-CD3 IgG
Outline: as §1

[18] = target: T18, ADI-26919; experiment: SPR Carterra avidity, yeast anti-ID
T18 construct: anti-CD3 antibody made in CHO cells, captured by anti-human Fc
Outline: as §1

[19] = target: T19, ADI-50024; experiment: SPR Carterra avidity, yeast anti-ID
T19 construct: anti-CD3 antibody made in CHO cells, captured by anti-human Fc
Outline: as §1

[20] = target: T20, ADI-76360; experiment: SPR Carterra avidity, yeast anti-ID
T20 construct: anti-CD3 antibody made in CHO cells, captured by anti-human Fc
Outline: as §1

[21] = target: T21, ADI-70330; experiment: SPR Carterra avidity, yeast anti-ID
T21 construct: anti-CD3 antibody made in CHO cells, captured by anti-human Fc
Outline: as §1

[22] = target: T22, ADI-26913 IgG; experiment: SPR Carterra avidity, yeast anti-ID
T22 construct: anti-CD3 IgG
Outline: as §1

[23] = target: T23, ADI-26916 IgG; experiment: SPR Carterra avidity, yeast anti-ID
T23 construct: anti-CD3 IgG
Outline: as §1

[24] = target: T24, ADI-74966; experiment: SPR Carterra avidity, yeast anti-ID
T24 construct: pH-dependent anti-CD3 antibody made in CHO cells
Outline: as §1

[25] = target: T25, ADI-70326; experiment: SPR Carterra avidity, yeast anti-ID
T25 construct: anti-CD3 antibody made in CHO cells, captured by anti-human Fc
Outline: as §1

[26] = target: T26, ADI-67450; experiment: SPR Carterra avidity, yeast anti-ID
T26 construct: anti-CD3 antibody made in CHO cells, captured by anti-human Fc
Outline: as §1

[27] = target: T27, ADI-76357; experiment: SPR Carterra avidity, yeast anti-ID
T27 construct: anti-CD3 antibody made in CHO cells, captured by anti-human Fc
Outline: as §1

[28] = target: T28, ADI-74968; experiment: SPR Carterra avidity, yeast anti-ID
T28 construct: pH-dependent anti-CD3 antibody made in CHO cells
Outline: as §1

[29] = target: T29, ADI-74967; experiment: SPR Carterra avidity, yeast anti-ID
T29 construct: pH-dependent anti-CD3 antibody made in CHO cells
Outline: as §1

[30] = target: T30, ADI-26915; experiment: SPR Carterra, yeast anti-ID
T30 construct: anti-CD3 antibody made in CHO cells, captured by anti-human Fc
Outline: as §1

[31] = target: T31, ADI-74965; experiment: SPR Carterra, yeast anti-ID
T31 construct: pH-dependent anti-CD3 antibody made in CHO cells
Outline: as §1

[32] = target: T32, ADI-48576; experiment: SPR Carterra, yeast anti-ID
T32 construct: pH-dependent anti-CD3 antibody made in CHO cells
Outline: as §1

[33] = target: T33, CTL-62240; experiment: SPR Carterra, yeast anti-ID
T33 construct: also called ONO-4685
Outline: as §1

[34] = target: T34, ADI-48592; experiment: SPR Carterra, yeast anti-ID
T34 construct: pH-dependent anti-CD3 antibody made in CHO cells
Outline: as §1

[35] = target: T35, CTL-62228; experiment: SPR Carterra, yeast anti-ID
T35 construct: also called glofitamab
Outline: as §1

[36] = target: T36, ADI-48650; experiment: SPR Carterra, yeast anti-ID
T36 construct: pH-dependent anti-CD3 antibody made in CHO cells
Outline: as §1

[37] = target: T37, CTL-62227; experiment: SPR Carterra, yeast anti-ID
T37 construct: also called odronextamab
Outline: as §1

[38] = target: T38, ADI-26912; experiment: SPR Carterra, yeast anti-ID
T38 construct: anti-CD3 antibody made in CHO cells, captured by anti-human Fc
Outline: as §1

[39] = target: T22, ADI-26913 IgG; experiment: SPR Carterra avidity, yeast anti-ID, *koff limit
Outline: as §1

[40] = target: T24, ADI-74966; experiment: SPR Carterra avidity, yeast anti-ID, *koff limit
Outline: as §1

[41] = target: T26, ADI-67450; experiment: SPR Carterra avidity, yeast anti-ID, *koff limit
Outline: as §1

[42] = target: T29, ADI-74967; experiment: SPR Carterra avidity, yeast anti-ID, *koff limit
Outline: as §1

[43] = target: T5, ADI-76361; experiment: SPR Carterra avidity, yeast anti-ID
Outline: as §1

[44] = target: T31, ADI-74965; experiment: SPR Carterra avidity, yeast anti-ID
Outline: as §1

[45] = target: T32, ADI-48576; experiment: SPR Carterra avidity, yeast anti-ID
Outline: as §1

[46] = target: T34, ADI-48592; experiment: SPR Carterra avidity, yeast anti-ID
Outline: as §1

[47] = target: T36, ADI-48650; experiment: SPR Carterra avidity, yeast anti-ID
Outline: as §1

T19 sequence (VH, as listed by the source limits assumed, chain 1 of 2): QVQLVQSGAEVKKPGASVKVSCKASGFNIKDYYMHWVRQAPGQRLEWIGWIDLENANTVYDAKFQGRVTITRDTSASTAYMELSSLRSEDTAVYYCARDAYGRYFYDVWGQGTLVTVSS
T19 sequence (VL, as listed by the source limits assumed, chain 2 of 2): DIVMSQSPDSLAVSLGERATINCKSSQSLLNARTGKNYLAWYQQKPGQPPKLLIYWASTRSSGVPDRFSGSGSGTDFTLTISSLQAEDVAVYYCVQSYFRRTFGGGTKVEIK
T2 sequence (VH, as listed by the source, chain 1 of 2): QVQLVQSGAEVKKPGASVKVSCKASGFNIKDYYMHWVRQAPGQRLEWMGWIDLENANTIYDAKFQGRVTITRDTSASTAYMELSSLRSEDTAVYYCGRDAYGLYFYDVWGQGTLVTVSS
T2 sequence (VL, as listed by the source, chain 2 of 2): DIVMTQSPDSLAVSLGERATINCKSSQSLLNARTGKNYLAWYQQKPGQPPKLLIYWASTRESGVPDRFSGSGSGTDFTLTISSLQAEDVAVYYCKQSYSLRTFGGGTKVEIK
T32 sequence (VH, as listed by the source, chain 1 of 2): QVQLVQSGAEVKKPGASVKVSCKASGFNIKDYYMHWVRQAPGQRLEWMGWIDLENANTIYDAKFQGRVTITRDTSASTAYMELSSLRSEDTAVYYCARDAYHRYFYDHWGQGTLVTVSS
T32 sequence (VL, as listed by the source, chain 2 of 2): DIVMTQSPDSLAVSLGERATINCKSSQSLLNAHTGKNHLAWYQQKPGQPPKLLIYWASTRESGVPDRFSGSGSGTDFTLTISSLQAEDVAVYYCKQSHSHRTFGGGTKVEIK
T34 sequence (VH, as listed by the source, chain 1 of 2): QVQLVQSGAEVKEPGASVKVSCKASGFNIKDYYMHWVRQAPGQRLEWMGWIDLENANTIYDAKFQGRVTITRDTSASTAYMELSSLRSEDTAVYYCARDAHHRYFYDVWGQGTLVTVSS
T34 sequence (VL, as listed by the source, chain 2 of 2): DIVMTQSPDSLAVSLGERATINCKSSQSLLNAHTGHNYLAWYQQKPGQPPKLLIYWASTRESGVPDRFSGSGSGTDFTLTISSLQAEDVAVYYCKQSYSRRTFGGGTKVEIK
T27 sequence (VH, as listed by the source, chain 1 of 2): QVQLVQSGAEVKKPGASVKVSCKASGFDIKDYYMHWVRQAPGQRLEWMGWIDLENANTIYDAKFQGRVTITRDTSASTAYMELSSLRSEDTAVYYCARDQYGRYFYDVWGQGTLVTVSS
T27 sequence (VL, as listed by the source, chain 2 of 2): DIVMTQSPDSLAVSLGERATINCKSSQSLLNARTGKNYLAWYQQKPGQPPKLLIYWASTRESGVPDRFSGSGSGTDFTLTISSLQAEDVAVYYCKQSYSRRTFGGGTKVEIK
T7 sequence (VH, as listed by the source, chain 1 of 2): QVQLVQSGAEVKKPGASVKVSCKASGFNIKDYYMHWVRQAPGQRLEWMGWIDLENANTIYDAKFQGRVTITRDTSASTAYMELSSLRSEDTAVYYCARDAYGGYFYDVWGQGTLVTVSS
T7 sequence (VL, as listed by the source, chain 2 of 2): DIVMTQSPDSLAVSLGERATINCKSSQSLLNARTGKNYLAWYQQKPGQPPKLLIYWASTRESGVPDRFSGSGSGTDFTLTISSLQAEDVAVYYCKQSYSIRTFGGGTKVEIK
T17 sequence (VH, as listed by the source limits assumed, chain 1 of 2): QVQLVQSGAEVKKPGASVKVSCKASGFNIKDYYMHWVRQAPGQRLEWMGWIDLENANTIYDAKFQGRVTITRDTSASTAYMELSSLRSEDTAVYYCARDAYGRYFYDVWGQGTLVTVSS
T1 sequence (VH, as listed by the source limits assumed, chain 1 of 2): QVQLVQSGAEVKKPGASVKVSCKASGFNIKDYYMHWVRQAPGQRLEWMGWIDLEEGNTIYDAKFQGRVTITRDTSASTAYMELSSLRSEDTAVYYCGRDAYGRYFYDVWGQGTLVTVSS
T3 sequence (VH, as listed by the source limits assumed, chain 1 of 2): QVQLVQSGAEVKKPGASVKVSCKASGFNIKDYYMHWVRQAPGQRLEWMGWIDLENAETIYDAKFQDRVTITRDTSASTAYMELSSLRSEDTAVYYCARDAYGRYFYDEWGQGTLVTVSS
T26 sequence (VH, as listed by the source limits assumed, chain 1 of 2): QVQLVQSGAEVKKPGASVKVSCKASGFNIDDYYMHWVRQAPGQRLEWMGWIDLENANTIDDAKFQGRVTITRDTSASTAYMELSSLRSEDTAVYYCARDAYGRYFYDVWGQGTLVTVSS
T6 sequence (VH, as listed by the source, chain 1 of 2): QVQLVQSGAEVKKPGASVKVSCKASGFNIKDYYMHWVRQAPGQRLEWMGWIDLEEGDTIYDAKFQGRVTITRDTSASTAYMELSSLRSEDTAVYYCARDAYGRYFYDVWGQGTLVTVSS
T22 sequence (VH, as listed by the source limits assumed, chain 1 of 2): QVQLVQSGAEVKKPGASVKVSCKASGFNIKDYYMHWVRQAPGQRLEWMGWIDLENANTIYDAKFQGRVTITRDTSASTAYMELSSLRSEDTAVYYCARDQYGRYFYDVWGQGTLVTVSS
T20 sequence (VH, as listed by the source, chain 1 of 2): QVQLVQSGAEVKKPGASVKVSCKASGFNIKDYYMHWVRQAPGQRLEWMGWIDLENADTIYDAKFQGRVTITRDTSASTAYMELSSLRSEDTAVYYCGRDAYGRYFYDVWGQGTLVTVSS
T8 sequence (VH, as listed by the source limits assumed, chain 1 of 2): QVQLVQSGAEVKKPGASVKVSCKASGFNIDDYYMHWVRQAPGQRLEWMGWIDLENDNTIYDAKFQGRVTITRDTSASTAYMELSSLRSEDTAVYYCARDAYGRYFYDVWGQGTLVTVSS
T23 sequence (VH, as listed by the source, chain 1 of 2): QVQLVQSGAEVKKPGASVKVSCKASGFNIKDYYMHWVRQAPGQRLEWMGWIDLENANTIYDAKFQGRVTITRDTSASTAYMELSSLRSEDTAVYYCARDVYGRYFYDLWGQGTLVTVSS
T10 sequence (VH, as listed by the source limits assumed, chain 1 of 2): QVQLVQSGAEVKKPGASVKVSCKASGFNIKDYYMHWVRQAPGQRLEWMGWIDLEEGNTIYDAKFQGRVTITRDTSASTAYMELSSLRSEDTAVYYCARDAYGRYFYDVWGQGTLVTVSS
T24 sequence (VH, as listed by the source, chain 1 of 2): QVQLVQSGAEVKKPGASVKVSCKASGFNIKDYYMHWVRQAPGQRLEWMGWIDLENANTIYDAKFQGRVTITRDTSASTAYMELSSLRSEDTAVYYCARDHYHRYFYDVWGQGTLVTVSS
T24 sequence (VL, as listed by the source, chain 2 of 2): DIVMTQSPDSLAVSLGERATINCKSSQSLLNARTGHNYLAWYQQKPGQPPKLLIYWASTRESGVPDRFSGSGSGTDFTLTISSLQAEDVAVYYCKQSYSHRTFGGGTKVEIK

Row | Binder | Kd [1] [nM] | Kd [2] [nM] | Kd [3] [nM] | Kd [4] [nM] | Kd [6] [nM] | Kd [7] [nM] | Kd [8] [nM] | Kd [9] [nM] | Kd [10] [nM] | Kd [11] [nM] | Kd [12] [nM] | Kd [13] [nM] | Kd [15] [nM] | Kd [16] [nM] | Kd [17] [nM] | Kd [18] [nM] | Kd [19] [nM] | Kd [20] [nM] | Kd [21] [nM] | Kd [23] [nM] | also measured
1 | ADI-34131 (antibody, V domains shown, anti-ID IgG) VH: QVQLVQSGAEVKKPGSSVKVSCKASGGTFSSYAISWVRQAPGQGLEWMGGIIPIFGTANYAQKFQGRVTITADESTSTAYMELSSLRSEDTAVYYCARGAPNYYGSGGYDDGWFDPWGQGTLVTVSS VL: not shown | 13 | 17 | 25 | 8.7 | 16 | 22 | 13 | 11 | 18 | 13.5 | 0.73 | 130 | 54 | 91 | 27 | 25 | 18 | 43 | 80 | 84 | Kd [5]: 19 nM; binding result [14]: binds; Kd [22]: 20 nM; Kd [24]: 31 nM; Kd [25]: 130 nM; Kd [26]: 69 nM; Kd [27]: 35 nM; binding result [28]: binds; Kd [29]: 22 nM; binding result [30]: no binding (tested: up to 200 nM); binding result [31]: no binding (tested: up to 200 nM); binding result [32]: no binding (tested: up to 200 nM); binding result [33]: no binding (tested: up to 200 nM); binding result [34]: no binding (tested: up to 200 nM); binding result [35]: no binding (tested: up to 200 nM); binding result [36]: no binding (tested: up to 200 nM); binding result [37]: no binding (tested: up to 200 nM); binding result [38]: no binding (tested: up to 200 nM)
2 | ADI-34138 (antibody, V domains shown, anti-ID IgG) VH: QVQLVQSGAEVKKPGSSVKVSCKASGGTFSSYAISWVRQAPGQGLEWMGGIIPIFGTANYAQKFQGRVTITADESTSTAYMELSSLRSEDTAVYYCARGAPNYYGSGGYDDGWFDPWGQGTLVTVSS VL: EIVMTQSPGTLSLSPGERATLSCRASQSVSSSYLAWYQQKPGQAPRLLIYGASNRATGIPDRFSGSGSGTDFTLTISRLEPEDFAVYYCQQAHTALWTFGGGTKVEIK | 12 | 16 | 27 | 9.5 | 17 | 22 | 12 | 10 | 17 | 9.69 | 0.57 | 160 | 46 | 29 | 20 | 33 | 19 | 57 | 45 | 64 | Kd [39]: 16 nM; Kd [40]: 15 nM; Kd [41]: 27 nM; Kd [42]: 18 nM; Kd [14]: 29 nM; Kd [43]: 21 nM; Kd [44]: 34 nM; binding result [45]: binds; binding result [46]: binds; Kd [47]: 110 nM; Kd [25]: 42 nM; Kd [27]: 17 nM; Kd [28]: 29 nM
